Reference: PMC6638984, “Increased association between Epstein-Barr virus EBNA2 from type 2 strains and the transcriptional repressor BS69 restricts EBNA2 activity” (PLoS Pathogens, 2019)
Changes are numbered by the printed parent chain. Names and notes keep the numbering of the source.

T1: BS69CC-MYND (BS69 amino acid 480–602, CC-MYND domain) (Homo sapiens, UniProt Q15326)
T1 construct: The BS69 CC-MYND domain (amino acids 480–602) was amplified from pCI-BS69; GST (N, cleaved yes); 6xHis (N, cleaved yes); made in house; host or cells: E. coli Rosetta 2 (DE3) pLysS
T1 sequence (Q15326 480-602): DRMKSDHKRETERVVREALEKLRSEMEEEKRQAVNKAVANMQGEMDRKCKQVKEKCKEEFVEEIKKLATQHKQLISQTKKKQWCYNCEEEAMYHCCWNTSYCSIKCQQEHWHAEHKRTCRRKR

B1: EBNA2_348-422 SD + m3 T1: type 2 EBNA2 polypeptide 348–422 containing both the SD and motif 3 (PSIDP) mutations (protein)
chain: SMPQLSPVVSLHQGQGPENSPTPGPSTAGPVCRVTPSATPDISPIHEPESSDSEEPPFLFPDDWYPPSIDPAELD
modifications: left off: His6, N-terminal, cleaved
notes: type 2 EBNA2 polypeptide 348–422 containing both the SD and motif 3 (PSIDP) mutations
B2: T2 EBNA2_348-422: type 2 EBNA2 polypeptide containing motif 1, 2 and 3, amino acids 348–422 (protein)
chain: B1 chain with D62S, S68T, I69L, D70E
modifications: left off: His6, N-terminal, cleaved
B3: T2 EBNA2_348-422 SD: type 2 EBNA2 polypeptide 348–422 with an S409D mutation (protein)
chain: B1 chain with S68T, I69L, D70E
modifications: left off: His6, N-terminal, cleaved
notes: type 2 EBNA2 polypeptide 348–422 with an S409D mutation
B4: EBNA2_348-422 SD + m3 mt: type 2 EBNA2 polypeptide 348–422 containing both the SD and motif 3 (ATAEA) mutations (protein)
chain: B1 chain with P67A, S68T, I69A, D70E, P71A
modifications: left off: His6, N-terminal, cleaved
notes: type 2 EBNA2 polypeptide 348–422 containing both the SD and motif 3 (ATAEA) mutations
B5: T2 EBNA2_348-422 motif 3 mt: T2 EBNA2_348-422 with motif 3 mutated from PTLEP to ATAEA (protein)
chain: B1 chain with D62S, P67A, S68T, I69A, D70E, P71A
modifications: left off: His6, N-terminal, cleaved
notes: T2 EBNA2_348-422 with motif 3 mutated from PTLEP to ATAEA
B6: T2 EBNA2_348-422 m3 T1: T2 EBNA2_348-422 with motif 3 PTLEP replaced with the type 1 sequence PSIDP (protein)
chain: B1 chain with D62S
modifications: left off: His6, N-terminal, cleaved
B7: T2 EBNA2_348-412: type 2 EBNA2 polypeptide, amino acids 348–412, expressed and purified from E.coli (protein)
chain: SMPQLSPVVSLHQGQGPENSPTPGPSTAGPVCRVTPSATPDISPIHEPESSDSEEPPFLFPSDWY
modifications: left off: His6, N-terminal, cleaved
notes: type 2 EBNA2 polypeptide, amino acids 348–412, expressed and purified from E.coli

molecular target: T1, BS69CC-MYND (BS69 amino acid 480–602, CC-MYND domain); test: Isothermal titration calorimetry (ITC) of EBNA2 peptides and polypeptides binding to BS69CC-MYND; conditions: 25°C, pH 7.5, 29 injections of 1.3 μl 0.3 mM EBNA2 polypeptide into 0.1 mM BS69CC-MYND, mean ± SD of 3 independent experiments, read-out: KD1 (binding event 1), two-site (two event) binding model
Excerpt: We hypothesised that the impaired gene activation and growth maintenance properties of type 2 EBNA2 may be the result of increased binding to BS69 as a result of the aspartate to serine amino acid difference adjacent to BS69 binding motif 2. […] We used isothermal titration calorimetry (ITC) to determine the affinity of peptide binding to the C-terminal region of BS69 (amino acid 480–602) comprising the CC-MYND domain that we expressed and purified from E.coli (Fig 1B and 1C). […] The difference in binding between type 1 and type 2 EBNA2 motif 2 peptides could be influenced by both the aspartate to serine change and differences in two other amino acids present in the sequence (Fig 1B and 1C).
The BS69 CC-MYND domain (amino acids 480–602) was amplified from pCI-BS69 containing the full length human BS69 sequence (gift from Dr Stéphane Ansieau) and cloned using SLIC into the SmaI and HindIII sites of pET49b+ to generate a construct expressing an N-terminal GST-6x Histidine tag BS69CC-MYND fusion protein (S2 Table).
Four commercially synthesized peptides (Peptide Synthetics) were used for ITC. These included BS69 binding motif 2 of type 1 EBNA2 (435–445) or type 2 EBNA2 (402–412) and putative BS69 binding motif 3 of type 1 EBNA2 (445–455) or type 2 EBNA2 (412–422).
Frozen protein was quickly thawed using running water and dialysed overnight at 4°C using Slide-A-Lyzer MINI Dialysis Units (Thermo Scientific) against ITC buffer (20mM Tris-HCl, 100mM NaCl and 1mM TCEP, pH 7.5). The next day, protein samples were centrifuged at 13000 rpm for 10 mins at 4 °C and the concentration was determined by NanoDrop spectroscopy (NanoDrop Technologies) with their respective molecular weights and extinction coefficients. EBNA2 peptides (1mM) and polypeptides (type 1, 0.3 mM and type 2, 0.6 mM) were titrated against BS69CC-MYND (0.1mM) at 25°C using a MicroCalTM iTC200 instrument (Malvern). For peptides, 13 x 3.0 μl injections were used for titration. For EBNA2 polypeptides 19 x 2.0 μl or 29 x 1.3 μl injections were used for titration. ITC data were corrected for non-specific heat and analysed using MicroCal Origin 7.0. The experiments were performed in triplicate alongside a control experiment with no BS69CC-MYND (buffer only in the cell). All polypeptides were used within 24 hrs of dialysis into ITC buffer.

Molecule | Kd
B1 | 8 nM
B2 | 9 nM
B3 | 8 ± 3 nM
B4 | 5 ± 1 nM

same assay, conditions: 25°C, pH 7.5, 29 injections of 1.3 μl 0.3 mM EBNA2 polypeptide into 0.1 mM BS69CC-MYND, mean ± SD of 3 independent experiments, read-out: KD2 (binding event 2), two-site (two event) binding model

Molecule | Kd
B1 | 136 nM
B2 | 91 nM
B3 | 200 ± 26 nM
B4 | 94 ± 28 nM

same assay, conditions: 25°C, pH 7.5, peptides 13 injections, polypeptides 19 injections, mean ± SD of 3 independent experiments

Molecule | -TΔS, one-site model | ΔG, one-site model | ΔH, one-site model
B5 | 17.2 kcal/mol | -8.50 ± 0.07 kcal/mol | 
B2 | 45 kcal/mol | -8.20 ± 0.18 kcal/mol | 
B6 | 19.5 ± 1.27 kcal/mol | -7.80 ± 0.04 kcal/mol | -27.3 ± 1.23 kcal/mol
B7 | 14.4 kcal/mol | -8.08 ± 0.06 kcal/mol | 

same assay, conditions: 25°C, pH 7.5, peptides 13 injections, polypeptides 19 injections, mean ± SD of 3 independent experiments, listed as T2 EBNA2 348-422

Molecule | -TΔS, one-site model
B2 | 45.0 ± 1.84 kcal/mol

same assay, conditions: 25°C, pH 7.5, peptides 13 injections, polypeptides 19 injections, mean ± SD of 3 independent experiments, listed as T2 EBNA2 348-422 m3 mt

Molecule | -TΔS, one-site model
B5 | 17.2 ± 0.79 kcal/mol

same assay, conditions: 25°C, pH 7.5, peptides 13 injections, polypeptides 19 injections, mean ± SD of 3 independent experiments, listed as T2 EBNA2348-412

Molecule | -TΔS, one-site model
B7 | 14.4 ± 2.48 kcal/mol

same assay, conditions: 29 injections, mean ± SD of 3 independent experiments

Molecule | -TΔS, event 1, two-site model | -TΔS, event 2, two-site model | n value, event 1, two-site model | n value, event 2, two-site model | ΔG, event 1, two-site model | ΔG, event 2, two-site model | ΔH, event 1, two-site model | ΔH, event 2, two-site model
B1 | 21.0 ± 0.95 kcal/mol | -4.62 ± 2.01 kcal/mol | 0.20 ± 0.01 | 0.20 ± 0.08 | -11.1 ± 0.17 kcal/mol | -9.44 ± 0.35 kcal/mol | -32.1 ± 1.12 kcal/mol | -4.82 ± 1.69 kcal/mol
B2 | 23.1 ± 0.14 kcal/mol | -8.04 ± 0.25 kcal/mol | 0.23 ± 0.01 | 0.21 ± 0.00 | -11.0 ± 0.28 kcal/mol | -9.62 ± 0.16 kcal/mol | -34.1 ± 0.14 kcal/mol | 
B3 | 11.6 ± 0.31 kcal/mol | 0.47 ± 1.33 kcal/mol | 0.22 ± 0.01 | 0.20 ± 0.00 | -11.0 ± 0.21 kcal/mol | -9.14 ± 0.08 kcal/mol | -22.7 ± 0.29 kcal/mol | -9.62 ± 1.32 kcal/mol
B4 | 20.4 ± 2.24 kcal/mol | -1.95 ± 2.10 kcal/mol | 0.20 ± 0.00 | 0.19 ± 0.01 | -9.60 ± 0.21 kcal/mol | -11.3 ± 0.12 kcal/mol | -31.7 ± 2.14 kcal/mol | -7.65 ± 1.89 kcal/mol
